± gives the standard deviation of the averaged measurements.
test system: ATP; assay: switch fluorescence ratio, 500 uM ATP over buffer (Cy3 cluster intensity, sum of 5 cycles each) (fold (ratio)); higher = stronger signal-on switching upon ATP binding; sequences stand for … in TCGTCGGCAGCGTCAGATGTGTATAAGAGACAGTTTTTTTTTTTTTTTTTTTTTTTTT…TC; settings: aptamer strand: ATP DNA aptamer (quencher-CACCTGGGGGAGTATTGCGGAGGAAGG + anchor), 100 nM annealed; ATP concentration: 500 uM
How it was run: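 Between each of five buffer/ATP cycles, the flow-cell was stripped with NaOH and re-annealed. Each cycle imaged Cy3-labelled switching-strand clusters, annealed to 100 nM quencher-labelled ATP aptamer on a modified Illumina MiSeq flow-cell, first in selection buffer and then after 15 min with 500 uM ATP at 22 °C. The fluorescence ratio is summed target-cycle over summed buffer-cycle Cy3 intensity per cluster, averaged per switch-domain sequence, with clusters outside 100-1000 RFU excluded.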
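Also: ATP exposure 15 min at 22 °C before imaging.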

Point of comparison: ACGGGGAGGC, switch fluorescence ratio 1.07 ± 0.028. Against it:
- ACGGCTAAGG — within error, 1.06 ± 0.029
- ACGGCTGGAA — lower, 0.969 ± 0.015
- ACGGCTGTCA — lower, 0.999 ± 0.025
- ACGGCTGTTC — lower, 1.01 ± 0.027
- ACGGGAAGGG — within error, 1.05 ± 0.03
- ACGGGAGACC — lower, 1.02 ± 0.018
- ACGGGATCAT — the same, 1.07 ± 0.054
- ACGGGCAAGC — higher, 1.72 ± 0.23
- ACGGGCGGGC — higher, 1.29 ± 0.032
- ACGGGCTAAC — within error, 1.09 ± 0.14
- ACGGGCTTTA — within error, 1.03 ± 0.026
- ACGGGCTTTT — lower, 1.01 ± 0.012
- ACGGGGAGTC — within error, 1.039 ± 0.0052
- ACGGGGATTG — within error, 1.02 ± 0.042
- ACGGGGCATC — the same, 1.07 ± 0.013
- ACGGGGCCGG — within error, 1.06 ± 0.032
- ACGGGGCTAA — within error, 1.12 ± 0.15
- ACGGGGGCGT — within error, 1.05 ± 0.068
- ACGGGGGTAA — within error, 1.18 ± 0.3
- ACGGGGGTG — within error, 1.04 ± 0.074
- ACGGGTGACC — within error, 1.03 ± 0.032
- ACGGGTGTCC — within error, 0.995 ± 0.066
- ACGGGTTGTG — lower, 0.96 ± 0.037
- ACGGGTTGTT — lower, 1.02 ± 0.021
- ACGGGTTTTT — lower, 0.999 ± 0.015
- ACGGTACTGT — higher, 1.4 ± 0.045
- ACGGTATAGT — within error, 1.1 ± 0.017
- ACGGTATTTT — within error, 1.09 ± 0.052
- ACGGTCATAT — within error, 1.08 ± 0.027
- ACGGTCTGGA — lower, 1 ± 0.041
- ACGGTGATAT — within error, 1.03 ± 0.028
- ACGGTGCTTG — lower, 0.99 ± 0.015
- ACGGTGGACT — lower, 1 ± 0.035
- ACGGTTAGGG — within error, 1.05 ± 0.043
- ACGGTTTAAT — within error, 1.04 ± 0.029
- ACGGTTTATG — within error, 1.01 ± 0.058
- ACGTAACGCT — higher, 1.3 ± 0.052
- ACGTAATGG — higher, 1.57 ± 0.059
- ACGTAGCATG — higher, 2.46 ± 0.45
- ACGTAGCTTT — within error, 1.37 ± 0.36
- ACGTAGGGGT — within error, 1.21 ± 0.27
- ACGTAGGGTT — within error, 1.08 ± 0.012
- ACGTAGTAAC — within error, 1.03 ± 0.022
- ACGTCAAGGT — within error, 1.0871 ± 0.00061
- ACGTCAGGGT — lower, 1.0361 ± 0.00046
- ACGTCTACTC — higher, 1.37 ± 0.1
- ACGTGACACC — higher, 1.35 ± 0.063
- ACGTGCTTTT — lower, 0.999 ± 0.018
- ACGTGGAGGA — within error, 1.054 ± 0.0031
- ACGTGGGGGG — within error, 1.04 ± 0.082
- ACGTGGTGTT — lower, 1.003 ± 0.0035
- ACGTGTAGGC — within error, 1.01 ± 0.04
- ACGTTAAAAT — within error, 1.05 ± 0.021
- ACGTTACTAC — higher, 1.52 ± 0.03
- ACGTTATTGG — higher, 1.14 ± 0.02
- ACGTTGAAGT — lower, 1.01 ± 0.019
- ACGTTGAATG — lower, 1.01 ± 0.011
- ACGTTGGATT — lower, 1.01 ± 0.014
- ACGTTGGGCA — lower, 0.99 ± 0.014
- ACGTTGGTGC — within error, 1.06 ± 0.029
- ACGTTTAACT — higher, 1.25 ± 0.015
- ACGTTTTACA — higher, 1.183 ± 0.0076
- ACGTTTTTGC — within error, 1.02 ± 0.044
- ACTAAAAATT — within error, 1.05 ± 0.04
- ACTAAACTTG — lower, 1.014 ± 0.0022
- ACTAAATAAA — within error, 1.14 ± 0.23
- ACTAAGAATT — lower, 1.02 ± 0.013
- ACTAATAGTC — within error, 1.02 ± 0.038
- ACTAATGTTT — lower, 0.994 ± 0.036
- ACTAATTAGC — lower, 1.01 ± 0.031
- ACTACACTTT — higher, 1.27 ± 0.018
- ACTACATTGG — lower, 1.033 ± 0.0065
- ACTACCCCAA — higher, 1.94 ± 0.14
- ACTACCCTCG — higher, 1.18 ± 0.065
- ACTACGTACA — higher, 1.68 ± 0.024
- ACTAGAGGCA — lower, 1 ± 0.024
- ACTAGAGGTT — within error, 1.06 ± 0.039
- ACTAGATTCT — lower, 0.979 ± 0.013
- ACTAGCTACT — higher, 1.138 ± 0.0094
- ACTAGCTGTA — lower, 0.982 ± 0.034
- ACTAGGATTC — lower, 0.986 ± 0.0028
- ACTAGGTGTG — within error, 1.04 ± 0.013
- ACTATGATCA — lower, 1.02 ± 0.014
- ACTATTAAT — lower, 1.024 ± 0.0063
- ACTATTGCCA — within error, 1.04 ± 0.017
- ACTATTGGGT — lower, 0.988 ± 0.015
- ACTATTTGCG — lower, 0.991 ± 0.042
- ACTATTTTTT — lower, 1 ± 0.029
- ACTCAAAACG — within error, 1.11 ± 0.09
- ACTCAAGGCT — the same, 1.07 ± 0.049
- ACTCAGGGGG — within error, 1.27 ± 0.32
- ACTCATTCGG — lower, 1.01 ± 0.015
- ACTCGCGGGT — within error, 1.04 ± 0.021
- ACTCGGGACG — lower, 0.9715 ± 0.0067
- ACTCGGGCAG — lower, 0.9937 ± 0.002
- ACTCGGGGGG — lower, 0.991 ± 0.023
- ACTCGGGTAC — higher, 1.79 ± 0.15
- ACTCGTAATC — higher, 3.04 ± 0.48
- ACTCGTAGCA — higher, 1.19 ± 0.012

From the supplement of paper PMC10126150
